Laboratory results taken from US20240254258A1 (TRELLIS BIOSCIENCE, published 2024).

Target: T1, ALK Extracellullar Domain (ECD), generated by Trellis in mammalian cells (human, UniProt Q9UM73 19-1038)
T1 construct: extracellular domain; Recombinant ECD made in-house in mammalian cells; also called ALK ECD; extracellular domain of ALK
Assay: adsorption ELISA on ALK ECD, serial dilutions, estimate of binding affinity
Description: Purified mAbs were tested in adsorption ELISA using ALK Extracellullar Domain (ECD), generated by Trellis in mammalian cells. TRL10001 is of particular interest based on its sub-nM affinity to the target.

T1 sequence (Q9UM73 19-1038): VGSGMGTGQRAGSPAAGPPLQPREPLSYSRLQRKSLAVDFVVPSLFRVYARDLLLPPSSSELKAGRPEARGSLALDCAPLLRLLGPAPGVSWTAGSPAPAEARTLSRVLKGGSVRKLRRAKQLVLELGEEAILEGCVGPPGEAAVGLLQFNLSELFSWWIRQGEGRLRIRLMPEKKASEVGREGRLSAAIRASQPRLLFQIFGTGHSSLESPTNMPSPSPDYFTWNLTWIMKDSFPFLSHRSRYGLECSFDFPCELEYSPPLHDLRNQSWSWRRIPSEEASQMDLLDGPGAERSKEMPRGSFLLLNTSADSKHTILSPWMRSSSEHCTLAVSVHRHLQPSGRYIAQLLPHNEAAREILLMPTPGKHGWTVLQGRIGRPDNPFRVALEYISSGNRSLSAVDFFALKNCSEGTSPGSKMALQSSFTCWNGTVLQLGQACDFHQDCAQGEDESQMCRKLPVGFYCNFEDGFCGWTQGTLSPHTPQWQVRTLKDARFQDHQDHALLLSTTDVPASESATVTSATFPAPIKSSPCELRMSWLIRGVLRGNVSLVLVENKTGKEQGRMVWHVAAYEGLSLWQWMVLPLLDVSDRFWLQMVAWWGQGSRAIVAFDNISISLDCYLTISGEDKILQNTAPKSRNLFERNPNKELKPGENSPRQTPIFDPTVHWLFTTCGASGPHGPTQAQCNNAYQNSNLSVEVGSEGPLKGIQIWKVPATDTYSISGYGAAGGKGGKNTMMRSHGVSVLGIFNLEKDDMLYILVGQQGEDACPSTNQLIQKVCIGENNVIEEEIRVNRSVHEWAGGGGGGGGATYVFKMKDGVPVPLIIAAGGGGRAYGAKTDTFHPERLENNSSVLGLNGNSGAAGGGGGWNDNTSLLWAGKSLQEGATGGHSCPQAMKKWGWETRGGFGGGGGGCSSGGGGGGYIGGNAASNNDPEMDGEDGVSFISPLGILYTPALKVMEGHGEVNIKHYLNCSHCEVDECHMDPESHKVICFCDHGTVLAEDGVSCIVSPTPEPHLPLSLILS

Affinity [nM] | Binder
1 | TRL10051 (antibody, IgG1, V domains shown, Native human mAb from donor 223) VH: QVQLVESGGGLVQPGGSLRLSCAASGFTFSSYVMSWVRQAPGKGLEWVSSIRVSGDRAHYADSVKGRFTVSRDDSKNTVYLQMNSLRVEDTAVYYCVKDQAERLLRAVTTHFDYWGQGALVTVSS VL: DIVMTQSPLSSPVTLGQPASISCRSSQSLVHSDGNTYLSWLQQRPGQPPRLLIYKVSRRFSGVPDRFSGSGAGTDFTLKISRVEAEDVGIYYCMQASQFPRTFGQGTKVEIKR
1 | TRL10005 (antibody, IgG1, V domains shown, Native human mAb from donor 236) VH: QVQLVESGGGLVKPGGSLRLSCAASGFTFNDHYMTWIRQAPGKGLEWISYISSSGGTIFYAESVKGRFTISRDNANNILFLQMNSLRAEDTAVYYCARGALRFLEWSHLGSWGQGTLVTVSS VL: DIVLTQSPGTLSLSPGERATLSCRASQRVSSSYLAWFQQKPGQAPRLLIYGASTRATGIPDRFSGSGSGTDFTLTISRLEPEDFAVYYCQQYGMSSWTFGQGTKVEIKR
75 | TRL10014 (antibody, IgG1, V domains shown, Native human mAb from donor 210; also called TRL100014) VH: QVQLVESGGGLVKPGGSLRLSCTASGFSFSDSYMNWIRQAPGKGLEWLAYISTSATYTYSADSVKGRFTISRDNAKNSLYLQMNSLRDEDTAVYYCAREGLFYDGLYGMDVWGQGTTVIVSS VL: DILMTQSPLSLPVTPGEPASISCRSSQSLLHSNGYNYLNWYLQKPGQSPQLLIYLGSNRASGVPDRFSGSGSGTDFTLKISSVEAEDVGVYYCMQALHTPRTFGQGTKVEIKR
